Experimental data taken from patent US20250152742A1, “COMPOSITIONS AND METHODS FOR NEUROLOGICAL DISEASES” (Trames Bio, Inc., priority 2022, published 2025).
Where a chain is given by its changes, count along the chain named. Numbers in names are those of the source.

System: engineered chimeric receptor SEQ ID NO: 33 and its mutants (human α7-nAChR ligand binding domain / human GlyRα1 ion pore domain) in Lenti-X 293T cells
Test: YFP fluorescence quenching anion reporter plate reader assay (percent quench, EC50)
Format: cell-based
Conditions: for YFP fluorescence quenching using CNL001 (percent quench): receptor named in row; for YFP fluorescence quenching using Facinicline, 30 nM fac: ligand Facinicline 30 nM; for YFP fluorescence quenching using Facinicline, 300 nM fac: ligand Facinicline 300 nM; for YFP fluorescence quenching using Facinicline, 30 uM fac: ligand Facinicline 30 uM; for YFP fluorescence quenching using TC-6987, 1 uM tc6987: ligand TC-6987 1 uM; for YFP fluorescence quenching using TC-6987, 10 uM tc6987: ligand TC-6987 10 uM; for YFP fluorescence quenching using TC-6987, 500 uM tc6987: ligand TC-6987 500 uM; for YFP fluorescence quenching using Varenicline, 3 nM var: ligand Varenicline 3 nM; for YFP fluorescence quenching using Varenicline, 30 nM var: ligand Varenicline 30 nM; for YFP fluorescence quenching using Varenicline, 300 nM var: ligand Varenicline 300 nM; for YFP fluorescence quenching using Varenicline, 500 nM var: ligand Varenicline 500 nM; for YFP fluorescence quenching using Varenicline, 1 uM var: ligand Varenicline 1 uM
Method in brief: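 Lenti-X 293T cells co-expressing an anion-quenchable YFP were transiently transfected with receptor DNA, then ligand was added in NaI-substituted buffer (pH 7.2) after 30 min at 37 °C. Fluorescence was read about 2 min; percent quench = mean of last 10 s over 15 s pre-ligand baseline.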

[1] = 1 nM CNL001, first column so headed
[2] = 1 nM CNL001, second column so headed
[3] = 3 nM brd (TC-5619/Bradanicline)
[4] = 10 nM CNL001, first column so headed
[5] = 10 nM CNL001, second column so headed
[6] = 30 nM brd (TC-5619/Bradanicline)
[7] = 50 nM CNL001, first column so headed
[8] = 50 nM CNL001, second column so headed
[9] = 100 nM CNL001, first column so headed
[10] = 100 nM CNL001, second column so headed
[11] = 300 nM brd (TC-5619/Bradanicline)
[12] = 1 uM CNL001, first column so headed
[13] = 1 uM CNL001, second column so headed

B1: CODA807: engineered receptor: Y115D, L131E in SEQ ID NO: 33 (protein)
chain: MRCSPGGVWLALAASLLHVSLQGEFQRKLYKELVKNYNPLERPVANDSQPLTVYFSLSLLQIMDVDEKNQVLTTNIWLQMSWTDHYLQWNVSEYPGVKTVRFPDGQIWKPDILLDNSADERFDATFHTNVEVNSSGHCQYLPPGIFKSSCPMDLKNFPMDVQTCKLKFGSWSYGGWSLDLQMQEADISGYIPNGEWDLVGIPGKRSERFYECCKEPYPDVTFTVTMRRRMGYYLIQMYIPSLLIVILSWISFWINMDAAPARVGLGITTVLTMTTQSSGSRASLPKVSYVKAIDIWMAVCLLFVFSALLEYAAVNFVSRQHKELLRFRRKRRHHKSPMLNLFQEDEAGEGRFNFSAYGMGPACLQAKDGISVKGANNSNTTNPPPAPSKSPEEMRKLFIQRAKKIDKISRIGFPMAFLIFNMFYWIIYKIVRREDVHNQ
modifications: synthetic sequence of chimeric LGIC
Q: With B1 as the molecule, how does the “YFP fluorescence quenching using CNL001 (percent quench)” value [1] read?
A: The value was 0.885%.

Q: What about the “YFP fluorescence quenching using CNL001 (percent quench)” value [2] of the same molecule?
A: The value was −1.707%.

Q: What about the “YFP fluorescence quenching using TC-5619/Bradanicline (percent quench)” value (1 nM brd (TC-5619/Bradanicline)) of the same molecule?
A: Its value is −1.52%.

Q: And the “YFP fluorescence quenching using TC-5619/Bradanicline (percent quench)” value [3]?
A: Its value is −5.35%.

Q: What about the “YFP fluorescence quenching using CNL001 (percent quench)” value [4] of the same molecule?
A: The value was −0.567%.

Q: What about the “YFP fluorescence quenching using CNL001 (percent quench)” value [5] of the same molecule?
A: Its value is 0.043%.

Q: What about the “YFP fluorescence quenching using TC-5619/Bradanicline (percent quench)” value (10 nM brd (TC-5619/Bradanicline)) of the same molecule?
A: Its value is −3.49%.

Q: And the “YFP fluorescence quenching using TC-6683 (percent quench)” value (30 nM TC-6683)?
A: Its value is −26.801%.

Q: What about the “YFP fluorescence quenching using TC-5619/Bradanicline (percent quench)” value [6] of the same molecule?
A: The value was −2.16%.

Q: What about the “YFP fluorescence quenching using CNL001 (percent quench)” value [7] of the same molecule?
A: The value was 5.141%.

Q: What about the “YFP fluorescence quenching using CNL001 (percent quench)” value [8] of the same molecule?
A: The value was 9.409%.

Q: And the “YFP fluorescence quenching using ABT-126 (percent quench)” value (50 nM abt (ABT-126))?
A: Its value is −1.68%.

Q: What about the “YFP fluorescence quenching using CNL001 (percent quench)” value [9] of the same molecule?
A: Its value is 9.796%.

Q: And the “YFP fluorescence quenching using CNL001 (percent quench)” value [10]?
A: Its value is 11.009%.

Q: And the “YFP fluorescence quenching (percent quench)” value (100 nM CNL002)?
A: Its value is −5.71%.

Q: And the “YFP fluorescence quenching using ABT-126 (percent quench)” value (100 nM abt (ABT-126))?
A: The value was −2.25%.

Q: And the “YFP fluorescence quenching using AZD-0328 (percent quench)” value (100 nM azd0328)?
A: Its value is 24.49%.

Q: What about the “YFP fluorescence quenching using TC-5619/Bradanicline (percent quench)” value (100 nM brd (TC-5619/Bradanicline)) of the same molecule?
A: The value was 4.18%.

Q: What about the “YFP fluorescence quenching using TC-6683 (percent quench)” value (300 nM TC-6683) of the same molecule?
A: Its value is −25.363%.

Q: And the “YFP fluorescence quenching using ABT-126 (percent quench)” value (300 nM abt (ABT-126))?
A: Its value is −2.37%.

Q: What about the “YFP fluorescence quenching using AZD-0328 (percent quench)” value (300 nM azd0328) of the same molecule?
A: The value was 45.34%.

Q: And the “YFP fluorescence quenching using TC-5619/Bradanicline (percent quench)” value [11]?
A: The value was 70.2%.

Q: And the “YFP fluorescence quenching using CNL001 (percent quench)” value [12]?
A: The value was 27.914%.

Q: And the “YFP fluorescence quenching using CNL001 (percent quench)” value [13]?
A: Its value is 29.109%.

Q: What about the “YFP fluorescence quenching (percent quench)” value (1 uM CNL002) of the same molecule?
A: The value was 13.03%.

Q: What about the “YFP fluorescence quenching using ABT-126 (percent quench)” value (1 uM abt (ABT-126)) of the same molecule?
A: Its value is 3.68%.

Q: What about the “YFP fluorescence quenching using TC-5619/Bradanicline (percent quench)” value (1 uM brd (TC-5619/Bradanicline)) of the same molecule?
A: The value was 43.11%.

Q: And the “YFP fluorescence quenching using TC-6683 (percent quench)” value (3 uM TC-6683)?
A: Its value is −23.651%.

Q: And the “YFP fluorescence quenching (percent quench)” value (10 uM ach (acetylcholine))?
A: Its value is 15.45%.

Q: What about the “YFP fluorescence quenching (percent quench)” value (30 uM CNL002) of the same molecule?
A: Its value is 25.2%.

Q: And the “YFP fluorescence quenching using TC-6683 (percent quench)” value (30 uM TC-6683)?
A: Its value is −26.235%.

Q: And the “YFP fluorescence quenching using AZD-0328 (percent quench)” value (30 uM azd0328)?
A: Its value is 71.21%.

Q: What about the “YFP fluorescence quenching using TC-6683 (percent quench)” value (100 uM TC-6683) of the same molecule?
A: Its value is −24.182%.

Q: And the “YFP fluorescence quenching (percent quench)” value (100 uM ach (acetylcholine))?
A: The value was 13.77%.

Q: What about the “YFP fluorescence quenching (percent quench)” value (1 mM ach (acetylcholine)) of the same molecule?
A: The value was 27.42%.

Q: And the “YFP fluorescence quenching (percent quench)” value (3 mM ach (acetylcholine))?
A: Its value is 53.62%.

Q: And the “YFP fluorescence quenching using Facinicline, 30 nM fac” value?
A: The value was 45.76.

Q: What about the “YFP fluorescence quenching using Facinicline, 100 nM fac” value (ligand Facinicline 100 nM) of the same molecule?
A: The value was 63.92.

Q: And the “YFP fluorescence quenching using Facinicline, 300 nM fac” value?
A: Its value is 79.43.

Q: What about the “YFP fluorescence quenching using Facinicline, 10 uM fac” value (ligand Facinicline 10 uM) of the same molecule?
A: Its value is 80.1.

Q: And the “YFP fluorescence quenching using Facinicline, 30 uM fac” value?
A: Its value is 84.91.

Q: What about the “YFP fluorescence quenching using TC-6987, 1 uM tc6987” value of the same molecule?
A: Its value is 36.07.

Q: What about the “YFP fluorescence quenching using TC-6987, 10 uM tc6987” value of the same molecule?
A: The value was 31.35.

Q: What about the “YFP fluorescence quenching using TC-6987, 500 uM tc6987” value of the same molecule?
A: The value was 28.18.

B2: CODA952: engineered receptor: Y140I in SEQ ID NO: 33 (protein)
chain: B1 chain with D115Y, E131L, Y140I
modifications: synthetic sequence of chimeric LGIC
Q: Which results are given for B2?
A: YFP fluorescence quenching using CNL001 (percent quench) [1]: 0.368%; YFP fluorescence quenching using CNL001 (percent quench) [2]: −1.976%; YFP fluorescence quenching using TC-5619/Bradanicline (percent quench) [3]: −2.45%; YFP fluorescence quenching using CNL001 (percent quench) [4]: −3.923%; YFP fluorescence quenching using CNL001 (percent quench) [5]: 4.348%; YFP fluorescence quenching using TC-6683 (percent quench) (30 nM TC-6683): −27.7%; YFP fluorescence quenching using TC-5619/Bradanicline (percent quench) [6]: 66.97%; YFP fluorescence quenching using CNL001 (percent quench) [7]: 74.107%; YFP fluorescence quenching using CNL001 (percent quench) [8]: 75.866%; YFP fluorescence quenching using ABT-126 (percent quench) (50 nM abt (ABT-126)): −12.34%; YFP fluorescence quenching using CNL001 (percent quench) [9]: 80.323%; YFP fluorescence quenching using CNL001 (percent quench) [10]: 81.996%; YFP fluorescence quenching (percent quench) (100 nM CNL002): 32.58%; YFP fluorescence quenching using ABT-126 (percent quench) (100 nM abt (ABT-126)): −11.57%; YFP fluorescence quenching using AZD-0328 (percent quench) (100 nM azd0328): −12.96%; YFP fluorescence quenching using TC-6683 (percent quench) (300 nM TC-6683): −26.87%; YFP fluorescence quenching using ABT-126 (percent quench) (300 nM abt (ABT-126)): −5.21%; YFP fluorescence quenching using AZD-0328 (percent quench) (300 nM azd0328): −13.21%; YFP fluorescence quenching using TC-5619/Bradanicline (percent quench) [11]: 78.48%; YFP fluorescence quenching using CNL001 (percent quench) [12]: 83.489%; YFP fluorescence quenching using CNL001 (percent quench) [13]: 82.208%; YFP fluorescence quenching (percent quench) (1 uM CNL002): 69.08%; YFP fluorescence quenching using ABT-126 (percent quench) (1 uM abt (ABT-126)): 3.93%; YFP fluorescence quenching using TC-6683 (percent quench) (3 uM TC-6683): −31.2%; YFP fluorescence quenching (percent quench) (10 uM ach (acetylcholine)): −1.97%; YFP fluorescence quenching (percent quench) (30 uM CNL002): 73.28%; YFP fluorescence quenching using TC-6683 (percent quench) (30 uM TC-6683): −33.12%; YFP fluorescence quenching using AZD-0328 (percent quench) (30 uM azd0328): 68.5%; YFP fluorescence quenching using TC-6683 (percent quench) (100 uM TC-6683): −24.67%; YFP fluorescence quenching (percent quench) (100 uM ach (acetylcholine)): 2.79%; YFP fluorescence quenching (percent quench) (1 mM ach (acetylcholine)): 58.81%; YFP fluorescence quenching (percent quench) (3 mM ach (acetylcholine)): 66.9%; YFP fluorescence quenching using Facinicline, 30 nM fac: −8.83; YFP fluorescence quenching using Facinicline, 300 nM fac: 51.6; YFP fluorescence quenching using Facinicline, 30 uM fac: 71.01; YFP fluorescence quenching using TC-6987, 1 uM tc6987: 6.03; YFP fluorescence quenching using TC-6987, 10 uM tc6987: 2.25; YFP fluorescence quenching using TC-6987, 500 uM tc6987: −0.24; YFP fluorescence quenching using Varenicline, 3 nM var (first column): −22.522; YFP fluorescence quenching using Varenicline, 3 nM var (second column): −18.173; YFP fluorescence quenching using Varenicline, 30 nM var (first column): −15.306; YFP fluorescence quenching using Varenicline, 30 nM var (second column): −12.832; YFP fluorescence quenching using Varenicline, 300 nM var (first column): −14.671; YFP fluorescence quenching using Varenicline, 300 nM var (second column): −17.016; YFP fluorescence quenching using Varenicline, 500 nM var (first column): −16.713; YFP fluorescence quenching using Varenicline, 500 nM var (second column): −18.893; YFP fluorescence quenching using Varenicline, 1 uM var (first column): −15.847; YFP fluorescence quenching using Varenicline, 1 uM var (second column): −16.236
